Assay results taken from a protein production outcome set (Wang et al. 2014).

Test: label from the status in PepcDB records

Sequence | protein production
MRADRSMLGPSLHRDQIMAMNRVQFQAGLSLPAFLKRYGNAQQCEQALEISRWPQGFVCPHCAATAHSRFQRHGTTYWQCTACYRQTSLRSGTVMDNSKLPLRTWLLGMYLLGQSKTNLSALELMRHLGVSYPTAWPMKHKLMQAMTQREANRKLGGIVQLDDAYLGGERNGGKAGRGSENKRLFVIAVETTEDGRPLRAVMDPVPGFTKAALSEWIGQRLHPGADVYSDGLGAFRALEAEHAHTVIEGSGRSRCEAENARWVNVVLSNLKRSLDGAYHAFKYAQRYLAETMWRFNRRFDLTRLVPSLLAAAAASKPWSERALRDVTMFTAESAC | failed
MRALIRYEDVPSKLWTLPKMTDFWGIGKRTEKRLNKLGISSIKELTNADPLLLKQKLGTIGLQHFFHANGIDESNVRLEHHHHHH | failed
MRALIVSNPNSTTQSAEMFRHVIPTLRAVPGLELRAQMTHYAGHARHMCENLTVEDYDVVIAVGGDGTVNEVINGLLGDLPSAPPALAVIPTGSANVFARALGLPADPAQAAEVLADALHKGSTRRINLGKWGS | failed
MRAMVSRLNSAVSRLFLFAFVAVMPTLVQAQSVNEGQSVRALTTDSSGALLVLRQSGLFALDSQNTTEIPLPPSDSGAQPRSMAKGGDESLYLAGPGLGIWRYDEASKRWQSLNDTLPDLGVTAIAAHATQPDTLYAYLGDGGMFRSRDDGAEWVKVDNGPREPVQAFLHSDMPGSMESGWLFAGTTRGVARSMDCFCFWGDAGELRGTVSAIDYDPWAPENVYAVIEGELHRSSDGGETWAGLEIPQAVTALTFSPTERLVVGTENGELLSQNASGEWVPVYE | failed
MRATACWFVSGLVTFKSENKTRRLVSATHNSRPSMSRVRSWILVVGVLVGAVGGCAEPQDGRGPATADSIAATAPGTDVVGAPLDASGDTLRMGRPTPVTTRPGYDNQPAFLPDGSGLVWTAIHDGQADVYRKIEDEGGPAPVTDTPESEFSPTPRPGGALTLVRVEADGRQRLWRYRADGTPDAPVLPDADSVGYHAWLDSSRVALFVLGAPPTLHVANVKSGTDTVVARRIGRSLQSVPGRADVSFVQVGPDSSVAIHRLDGASLTTRRLTEAPTNAPTGDHAWTPGGHLLMTTEDSLVAWRRGRADWRPVAALDTMDVSRLAVSPSGDRLAMVAAE | failed
MRAVIPYKKAGAKSRLSPVLSLQEREEFVELMLNQVISSLKGAGIEQVDILSPSVYGLEEMTEARVLLDEKDLNEALNRYLKEAEEPVLIVMADLPLLSPEHIKEISSTEKDVCIVPGKGGGTNALFIKNPSKYRVKYYGSSFLTHCSIATDSGQDFEIYDSFMAGTDIDEPEDLVELLIHGKGAAKDYIESKFRLEVKKG | failed
MRDATYPQLWAAVRAARKAGRTLESVKPAADQFQVKHNGDIVTEADRTVEETILAELSGQFPVHTVVSEESAPEFTTKPRWIIDPIDGTTNFLNGIPHYSISIAFEGAGEPDVGIVYHVPSETMYTAIEGGGAYANGQPLSLSATTELSEALIVTGFDTASMQAQEYDHFRTILNVTQGVRRFGSAAGELAMVAAGQFDAFFERQLSVWDTAAGVKIVEEAGGEVTRIKALDGKNSEMVLASNEAIHQDLVALVSAGTVPKMDGQ | failed
MRDAYLMMVLMDALKEIFDLKEILKSPIRNKKVILFVSLVFILSLVLLYILVVNIKYFSYLGDIIFQNFQKHVENLKITLNEDNLHIILAIWKNNLTVCILNYILGIFSLFVIAVNSYILSYVLYKFGAESFIYLVLPHGIIEIPALILSASGGVLFNMGLVNFLINIKFGTKREVLYYIKESLKLLILSIILFIVAGIVEGTITFKIAKIMFS | failed
MRDLDREETYLVDRTGLALELRDLVGTGPVPGEAYPGPHAALGYGEGQFAALLSGLPDWGEEGTLFLLEGGYDLGEAAGMALLAETGRARVVRVGFRPGVEVHIPPSPLAPYRYLRFLLLATGREEVLRSVDEALLEERRRLGPEVPVEENPAKFLAYTLLERLPLFYSPLFRPLEGAVQTLFARVAKSLSLTPPPSALEFFLVGLEARHEQGDPLAAVLLGPGEEAALAKEILESRVDALAEVPATGANRLAQVMALWYRMAWTAYYLALLYGVDPGDHGLLERLREVT | not failed
MRDLLNDLSEGLSHPDPILRAQIQMQKPLPKRFYKDVTVADVEEGGFTILLDGKPLRTPAKKPLVAPSRALADLLRDEWDAQKEVVNPVVMPVSRHVNTAIDGIASDTQAVFEDILRFSSSDLLCYRAGDPEALVARQTDYWDPVLDWATNVLGARFILVEGVMHRDQPREAIAAFAVTLKKYDTPIALAALHTMTSLTGSAILALALAEGELTLEEAWALAHLDEDWTAEQWGEDEEALERRAVRLIDMRAALNVLESLKSASLEHHHHHH | failed
